What was measured:
[1] = system: human dermal papilla cells; test: Dermal papilla cell proliferating effect, CCK-8 (Example 13); type: cell-based; details: proteins 25 ng/ml, minoxidil 10 μM; TGF-β2 (2 ng/ml) present or absent
Experimental: Human dermal papilla cells were cultured in a 37° C., 5% CO2 incubator using a dermal papilla cell proliferation medium (Promocell). When the cells were about 90% full, the cells were detached with a 0.05% Trypsin/EDTA solution and then centrifuged at 1000 rpm for 3 minutes to recover only the cells. The cells were dispensed into a 96-well plate at 2.0×10^3 per well, cultured for 24 hours, and HAPLN1, CX3CL1 and CDON were diluted to have a final concentration of 25 ng/ml in serum-free medium. After removing the existing culture medium, 200 μl of diluted HAPLN1, CX3CL1, and CDON were dispensed into each well and cultured for 1 hour. To reduce an experimental variation, 3 wells per group were treated (triplication). In addition, minoxidil, which is known to proliferate dermal papilla cells, was treated with 10 μM and set as a positive control.
(§1) In the same manner as described above, HAPLN1 (25 ng/ml), CX3CL1 (25 ng/ml), CDON (25 ng/ml) or minoxidil (10 μM), and human recombinant TGF-β2 were diluted to a final concentration of 2 ng/ml, and the medium of the group containing TGF-β2 was replaced by 200 μl. To reduce an experimental variation, 3 wells per group were treated (triplication).
(§2) After incubation for 23 hours, the plate was removed from the incubator, and 20 μl of CCK-8 (WST-8) solution was added to the plate containing the medium and the reagent per 200 μl of the medium for the reaction to be carried out at 37° C. for 1 hour.

[2] = system: human hair germinal matrix cells; test: Hair germinal matrix cell proliferating effect, CCK-8 (Example 13); type: cell-based; details: 25 ng/ml; TGF-β2 condition not given
Experimental: as §1, §2
Human hair germinal matrix cells were released in a poly-D-lysine-coated flask using a mesenchymal stem cell medium (MSCM), and cultured in a 5% CO2 incubator at 37° C. When the cells were about 90% full, the cells were detached with a 0.05% Trypsin/EDTA solution, and then only the cells were recovered by centrifugation at 1000 rpm for 3 minutes. The recovered cells were dispensed into 96-well poly-D-lysine coated plates (BD bioscience) at 2.0×10^3 per well and cultured for 24 hours, and the final concentrations of HAPLN1, CX3CL1 and CDON were diluted to 25 ng/ml in a serum-free medium. The subsequent process was performed in the same manner as the experiment for the dermal papilla cells to measure the absorbance, and the results are shown in FIG. 22.

Molecule	dermal papilla cell proliferation (absorbance at 450 nm) [1]	hair germinal matrix cell proliferation (absorbance at 450 nm) [2]
CX3CL1: protein expressed by a cell adhesion gene present in dermal papilla cells (protein, UniProt P78423 25-397, looked up) Fractalkine: QHHGVTKCNITCSKMTSKIPVALLIHYQQNQASCGKRAIILETRQHRLFCADPKEQWVKDAMQHLDRQAAALTRNGGTFEKQIGEVKPRTTPAAGGMDESVVLEPEATGESSSLEPTPSSQEAQRALGTSPELPTGVTGSSGTRLPPTPKAQDGGPVGTELFRVPPVSTAATWQSSAPHQPGPSLWAEAKTSEAPSTQDPSTQASTASSPAPEENAPSEGQRVWGQGQSPRPENSLEREEMGPVPAHTDAFQDWGPGSMAHVSVVPVSSEGTPSREPVASGSWTPKAEEPIHATMDPQRLGVLITPVPDAQAATRRQAVGLLAFLGLLFCLGVAMFTYQSLQGCPRKMAGEMAEGLRYIPRSCGSNSYVLVPV	did not proliferate dermal papilla cells or rather inhibited proliferation thereof	inhibiting cell proliferation
CDON: protein expressed by a cell adhesion gene present in dermal papilla cells (protein, UniProt Q4KMG0 26-1287, looked up) Cell adhesion …: DLAPYFTSEPLSAVQKLGGPVVLHCSAQPVTTRISWLHNGKTLDGNLEHVKIHQGTLTILSLNSSLLGYYQCLANNSIGAIVSGPATVSVAVLGDFGSSTKHVITAEEKSAGFIGCRVPESNPKAEVRYKIRGKWLEHSTENYLILPSGNLQILNVSLEDKGSYKCAAYNPVTHQLKVEPIGRKLLVSRPSSDDVHILHPTHSQALAVLSRSPVTLECVVSGVPAPQVYWLKDGQDIAPGSNWRRLYSHLATDSVDPADSGNYSCMAGNKSGDVKYVTYMVNVLEHASISKGLQDQIVSLGATVHFTCDVHGNPAPNCTWFHNAQPIHPSARHLTAGNGLKISGVTVEDVGMYQCVADNGIGFMHSTGRLEIENDGGFKPVIITAPVSAKVADGDFVTLSCNASGLPVPVIRWYDSHGLITSHPSQVLRSKSRKSQLSRPEGLNLEPVYFVLSQAGASSLHIQAVTQEHAGKYICEAANEHGTTQAEASLMVVPFETNTKAETVTLPDAAQNDDRSKRDGSETGLLSSFPVKVHPSAVESAPEKNASGISVPDAPIILSPPQTHTPDTYNLVWRAGKDGGLPINAYFVKYRKLDDGVGMLGSWHTVRVPGSENELHLAELEPSSLYEVLMVARSAAGEGQPAMLTFRTSKEKTASSKNTQASSPPVGIPKYPVVSEAANNNFGVVLTDSSRHSGVPEAPDRPTISTASETSVYVTWIPRANGGSPITAFKVEYKRMRTSNWLVAAEDIPPSKLSVEVRSLEPGSTYKFRVIAINHYGESFRSSASRPYQVVGFPNRFSSRPITGPHIAYTEAVSDTQIMLKWTYIPSSNNNTPIQGFYIYYRPTDSDNDSDYKRDVVEGSKQWHMIGHLQPETSYDIKMQCFNEGGESEFSNVMICETKVKRVPGASEYPVKDLSTPPNSLGSGGNVGPATSPARSSDMLYLIVGCVLGVMVLILMVFIAMCLWKNRQQNTIQKYDPPGYLYQGSDMNGQMVDYTTLSGASQINGNVHGGFLTNGGLSSGYSHLHHKVPNAVNGIVNGSLNGGLYSGHSNSLTRTHVDFEHPHHLVNGGGMYTAVPQIDPLECVNCRNCRNNNRCFTKTNSTFSSSPPPVVPVVAPYPQDGLEMKPLSHVKVPVCLTSAVPDCGQLPEESVKDNVEPVPTQRTCCQDIVNDVSSDGSEDPAEFSRGQEGMINLRIPDHLQLAKSCVWEGDSCAHSETEINIVSWNALILPPVPEGCAEKTMWSPPGIPLDSPTEVLQQPRET	did not proliferate dermal papilla cells or rather inhibited proliferation thereof	inhibiting cell proliferation

Source: patent publication US20220202899A1, “COMPOSITION FOR PREVENTION OR TREATMENT OF HAIR LOSS INCLUDING HAPLN1” (HAPLNSCIENCE INC., priority 2019, published 2022)
